Measured values as given in patent publication US20160272683A1 (Novo Nordisk, published 2016).
Values belong to the binder of their own block, whether it stands above or below them. Numbered stars: 1 amine (or outer) side, 2 acyl side, 3 side chain; on linkers, the order of the positions; unused ones are H or OH. * marks the point of attachment. C20 diacid = O=C(O)CCCCCCCCCCCCCCCCCCC(=O)*; C18 diacid = O=C(O)CCCCCCCCCCCCCCCCC(=O)*; γGlu = O=C(O)[C@H](CCC(=O)[*:2])N[*:1]

How the values were obtained:
[1] = target: T1, human amylin 3(a) receptor (human calcitonin receptor co-expressed with RAMP-3) (human, UniProt P30988 25-474; O60896 24-148, limits assumed); assay: cell-based or functional assay
T1 sequence (looked up) 1: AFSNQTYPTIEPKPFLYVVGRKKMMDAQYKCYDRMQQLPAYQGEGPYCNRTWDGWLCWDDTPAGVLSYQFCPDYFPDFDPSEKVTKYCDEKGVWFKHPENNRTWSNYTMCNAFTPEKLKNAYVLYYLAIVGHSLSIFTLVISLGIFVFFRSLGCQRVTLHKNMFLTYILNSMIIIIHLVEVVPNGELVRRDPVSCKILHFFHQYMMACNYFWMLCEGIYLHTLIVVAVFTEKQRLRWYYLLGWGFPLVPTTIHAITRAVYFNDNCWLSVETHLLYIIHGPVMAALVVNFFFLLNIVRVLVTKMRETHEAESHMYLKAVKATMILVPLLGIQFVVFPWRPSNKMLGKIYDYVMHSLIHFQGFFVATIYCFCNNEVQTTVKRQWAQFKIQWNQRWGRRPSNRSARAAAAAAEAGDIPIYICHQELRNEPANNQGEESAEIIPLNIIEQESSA
T1 sequence (looked up) 2: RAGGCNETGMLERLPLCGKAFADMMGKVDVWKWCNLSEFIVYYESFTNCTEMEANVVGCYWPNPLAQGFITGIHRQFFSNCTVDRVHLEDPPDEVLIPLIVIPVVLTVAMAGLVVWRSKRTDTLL

[2] = target: T2, human calcitonin receptor (human, UniProt P30988 25-474); assay: cell-based or functional assay
T2 sequence (looked up): T1 sequence (looked up) 1

B1: [N-terminal(C18 diacid), 5I]mimylin (peptide)
peptide: {C18 diacid}-EASEISTAALGRLSAELHELATLPRTETGPESP-NH2
SMILES: CC[C@H](C)[C@H](NC(=O)[C@H](CCC(=O)O)NC(=O)[C@H](CO)NC(=O)[C@H](C)NC(=O)[C@H](CCC(=O)O)NC(=O)CCCCCCCCCCCCCCCCC(=O)O)C(=O)N[C@@H](CO)C(=O)N[C@H](C(=O)N[C@@H](C)C(=O)N[C@@H](C)C(=O)N[C@@H](CC(C)C)C(=O)NCC(=O)N[C@@H](CCCNC(=N)N)C(=O)N[C@@H](CC(C)C)C(=O)N[C@@H](CO)C(=O)N[C@@H](C)C(=O)N[C@@H](CCC(=O)O)C(=O)N[C@@H](CC(C)C)C(=O)N[C@@H](Cc1c[nH]cn1)C(=O)N[C@@H](CCC(=O)O)C(=O)N[C@@H](CC(C)C)C(=O)N[C@@H](C)C(=O)N[C@H](C(=O)N[C@@H](CC(C)C)C(=O)N1CCC[C@H]1C(=O)N[C@@H](CCCNC(=N)N)C(=O)N[C@H](C(=O)N[C@@H](CCC(=O)O)C(=O)N[C@H](C(=O)NCC(=O)N1CCC[C@H]1C(=O)N[C@@H](CCC(=O)O)C(=O)N[C@@H](CO)C(=O)N1CCC[C@H]1C(N)=O)[C@@H](C)O)[C@@H](C)O)[C@@H](C)O)[C@@H](C)O
hAmylin-R funct. EC50 (pM) [1]: 7 pM
hCTR funct. EC50 (pM) [2]: 7 pM

B4: [N-terminal(C20 diacid-gGlu), des1, 23Y, 30S, 31G, 34G, C-terminal(-)]mimylin (peptide)
peptide: {C20 diacid-γGlu}-ASELSTAALGRLSAELHELATYPRTETGSGSPG-OH
SMILES: CC(C)C[C@H](NC(=O)[C@H](C)NC(=O)[C@H](C)NC(=O)[C@@H](NC(=O)[C@H](CO)NC(=O)[C@H](CC(C)C)NC(=O)[C@H](CCC(=O)O)NC(=O)[C@H](CO)NC(=O)[C@H](C)NC(=O)CC[C@H](NC(=O)CCCCCCCCCCCCCCCCCCC(=O)O)C(=O)O)[C@@H](C)O)C(=O)NCC(=O)N[C@@H](CCCNC(=N)N)C(=O)N[C@@H](CC(C)C)C(=O)N[C@@H](CO)C(=O)N[C@@H](C)C(=O)N[C@@H](CCC(=O)O)C(=O)N[C@@H](CC(C)C)C(=O)N[C@@H](Cc1c[nH]cn1)C(=O)N[C@@H](CCC(=O)O)C(=O)N[C@@H](CC(C)C)C(=O)N[C@@H](C)C(=O)N[C@H](C(=O)N[C@@H](Cc1ccc(O)cc1)C(=O)N1CCC[C@H]1C(=O)N[C@@H](CCCNC(=N)N)C(=O)N[C@H](C(=O)N[C@@H](CCC(=O)O)C(=O)N[C@H](C(=O)NCC(=O)N[C@@H](CO)C(=O)NCC(=O)N[C@@H](CO)C(=O)N1CCC[C@H]1C(=O)NCC(=O)O)[C@@H](C)O)[C@@H](C)O)[C@@H](C)O
hAmylin-R funct. EC50 (pM) [1]: 187 pM
hCTR funct. EC50 (pM) [2]: 64 pM

B5: [N-terminal(C20 diacid-gGlu), des1, 23Y, 30S, 31G, 34K, C-terminal(-)]mimylin (peptide)
peptide: {C20 diacid-γGlu}-ASELSTAALGRLSAELHELATYPRTETGSGSPK-OH
SMILES: CC(C)C[C@H](NC(=O)[C@H](C)NC(=O)[C@H](C)NC(=O)[C@@H](NC(=O)[C@H](CO)NC(=O)[C@H](CC(C)C)NC(=O)[C@H](CCC(=O)O)NC(=O)[C@H](CO)NC(=O)[C@H](C)NC(=O)CC[C@H](NC(=O)CCCCCCCCCCCCCCCCCCC(=O)O)C(=O)O)[C@@H](C)O)C(=O)NCC(=O)N[C@@H](CCCNC(=N)N)C(=O)N[C@@H](CC(C)C)C(=O)N[C@@H](CO)C(=O)N[C@@H](C)C(=O)N[C@@H](CCC(=O)O)C(=O)N[C@@H](CC(C)C)C(=O)N[C@@H](Cc1c[nH]cn1)C(=O)N[C@@H](CCC(=O)O)C(=O)N[C@@H](CC(C)C)C(=O)N[C@@H](C)C(=O)N[C@H](C(=O)N[C@@H](Cc1ccc(O)cc1)C(=O)N1CCC[C@H]1C(=O)N[C@@H](CCCNC(=N)N)C(=O)N[C@H](C(=O)N[C@@H](CCC(=O)O)C(=O)N[C@H](C(=O)NCC(=O)N[C@@H](CO)C(=O)NCC(=O)N[C@@H](CO)C(=O)N1CCC[C@H]1C(=O)N[C@@H](CCCCN)C(=O)O)[C@@H](C)O)[C@@H](C)O)[C@@H](C)O
hAmylin-R funct. EC50 (pM) [1]: 239 pM
hCTR funct. EC50 (pM) [2]: 88 pM

The remaining lines, values ahead:

hAmylin-R funct. EC50 (pM) [1]: 33 pM
hCTR funct. EC50 (pM) [2]: 28 pM
B2: [N-terminal(C18 diacid-gGlu), des1, 6T, 9V, 30S, 31G]mimylin (peptide)
peptide: {C18 diacid-γGlu}-ASELTTAVLGRLSAELHELATLPRTETGSGSP-NH2
SMILES: CC(C)C[C@H](NC(=O)[C@H](CCC(=O)O)NC(=O)[C@H](Cc1c[nH]cn1)NC(=O)[C@H](CC(C)C)NC(=O)[C@H](CCC(=O)O)NC(=O)[C@H](C)NC(=O)[C@H](CO)NC(=O)[C@H](CC(C)C)NC(=O)[C@H](CCCNC(=N)N)NC(=O)CNC(=O)[C@H](CC(C)C)NC(=O)[C@@H](NC(=O)[C@H](C)NC(=O)[C@@H](NC(=O)[C@@H](NC(=O)[C@H](CC(C)C)NC(=O)[C@H](CCC(=O)O)NC(=O)[C@H](CO)NC(=O)[C@H](C)NC(=O)CC[C@H](NC(=O)CCCCCCCCCCCCCCCCC(=O)O)C(=O)O)[C@@H](C)O)[C@@H](C)O)C(C)C)C(=O)N[C@@H](C)C(=O)N[C@H](C(=O)N[C@@H](CC(C)C)C(=O)N1CCC[C@H]1C(=O)N[C@@H](CCCNC(=N)N)C(=O)N[C@H](C(=O)N[C@@H](CCC(=O)O)C(=O)N[C@H](C(=O)NCC(=O)N[C@@H](CO)C(=O)NCC(=O)N[C@@H](CO)C(=O)N1CCC[C@H]1C(N)=O)[C@@H](C)O)[C@@H](C)O)[C@@H](C)O

hAmylin-R funct. EC50 (pM) [1]: 9 pM
hCTR funct. EC50 (pM) [2]: 13 pM
B3: [N-terminal(C18 diacid-gGlu), des1, 4Q, 16Q, 30S, 31G]mimylin (peptide)
peptide: {C18 diacid-γGlu}-ASQLSTAALGRLSAQLHELATLPRTETGSGSP-NH2
SMILES: CC(C)C[C@H](NC(=O)[C@H](C)NC(=O)[C@H](C)NC(=O)[C@@H](NC(=O)[C@H](CO)NC(=O)[C@H](CC(C)C)NC(=O)[C@H](CCC(N)=O)NC(=O)[C@H](CO)NC(=O)[C@H](C)NC(=O)CC[C@H](NC(=O)CCCCCCCCCCCCCCCCC(=O)O)C(=O)O)[C@@H](C)O)C(=O)NCC(=O)N[C@@H](CCCNC(=N)N)C(=O)N[C@@H](CC(C)C)C(=O)N[C@@H](CO)C(=O)N[C@@H](C)C(=O)N[C@@H](CCC(N)=O)C(=O)N[C@@H](CC(C)C)C(=O)N[C@@H](Cc1c[nH]cn1)C(=O)N[C@@H](CCC(=O)O)C(=O)N[C@@H](CC(C)C)C(=O)N[C@@H](C)C(=O)N[C@H](C(=O)N[C@@H](CC(C)C)C(=O)N1CCC[C@H]1C(=O)N[C@@H](CCCNC(=N)N)C(=O)N[C@H](C(=O)N[C@@H](CCC(=O)O)C(=O)N[C@H](C(=O)NCC(=O)N[C@@H](CO)C(=O)NCC(=O)N[C@@H](CO)C(=O)N1CCC[C@H]1C(N)=O)[C@@H](C)O)[C@@H](C)O)[C@@H](C)O

hAmylin-R funct. EC50 (pM) [1]: 32 pM
hCTR funct. EC50 (pM) [2]: 13 pM
Binder: {C18 diacid-γGlu}-ASEVSTAVLGRLSAELHELATLPRTETGSGSP-NH2 [[N-terminal(C18 diacid-gGlu), des1, 5V, 9V, 30S, 31G]mimylin]

hAmylin-R funct. EC50 (pM) [1]: 461 pM
hCTR funct. EC50 (pM) [2]: 127 pM
Binder: {C20 diacid-γGlu}-ASELSTAALGRLSAELHELATYPRTETGSGSY-OH [[N-terminal(C20 diacid-gGlu), des1, 23Y, 30S, 31G, 33Y, C-terminal(-)]mimylin]
